One block for each molecule: values may come before it. Positions of bridges follow the written chain, without caps; N, C: chain ends.
Tests used:
[1] = biological target: T1, human LRP6 construct E1E2 (amino acids A20-E631) (human, UniProt O75581 20-631, biotinylated for biolayer interferometry); assay: competition phage ELISA
T1 construct: range 20-631; also called LRP6 E1E2
T1 sequence (looked up): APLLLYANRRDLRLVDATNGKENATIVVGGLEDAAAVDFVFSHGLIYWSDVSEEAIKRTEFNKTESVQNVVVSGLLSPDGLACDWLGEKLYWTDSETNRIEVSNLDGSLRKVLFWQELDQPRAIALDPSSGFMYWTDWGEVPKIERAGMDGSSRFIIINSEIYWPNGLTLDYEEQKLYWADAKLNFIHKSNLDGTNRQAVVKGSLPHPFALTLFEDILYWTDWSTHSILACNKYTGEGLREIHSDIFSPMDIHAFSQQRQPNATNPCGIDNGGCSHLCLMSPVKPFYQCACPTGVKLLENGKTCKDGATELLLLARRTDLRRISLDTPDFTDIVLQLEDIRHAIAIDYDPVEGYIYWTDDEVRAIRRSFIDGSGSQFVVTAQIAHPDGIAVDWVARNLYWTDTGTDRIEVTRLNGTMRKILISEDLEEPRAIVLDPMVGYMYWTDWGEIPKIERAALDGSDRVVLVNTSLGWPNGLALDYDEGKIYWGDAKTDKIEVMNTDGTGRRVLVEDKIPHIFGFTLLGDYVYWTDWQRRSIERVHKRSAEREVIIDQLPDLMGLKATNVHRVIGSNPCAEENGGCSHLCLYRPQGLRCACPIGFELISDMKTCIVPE
Protocol: Peptide affinities were also determined by competition with phage displaying a binding peptide (competition phage ELISA). Serial dilutions of test peptide were mixed with an appropriate (non-saturating) concentration of phage before exposing the mixture to target and allowing it to reach equilibrium. After washing to remove unbound material, bound phage were detected by incubation with anti-M13 antibody-horseradish peroxidase (HRP) conjugate and exposure to a suitable colorometric HRP substrate.
FIG. 7B. These peptides include the “NXI” motif described above. Affinities of the peptides for LRP6 E1E2 were determined by competition phage ELISA (41). […] To understand the detailed interactions of the peptides with LRP6, we determined high-resolution co-crystal structures of the peptides bound to the LRP6 E1 β-propeller.

LRP6 = assay: Competition binding between Dkk1 and other Wnt pathway inhibitors (preloaded Dkk1); set-up: species or system human; details: Dkk1 100 nM preloaded, test ligand 100 nM
Protocol: FIG. 8. Competition binding between Dkk1 and other Wnt pathway inhibitors. The indicated LRP6 construct was preloaded onto biosensor tips. Dkk1 (100 nM) (or buffer control) and the test ligand (100 nM) were loaded sequentially onto the LRP6 tips. (A) Dkk2 competition with Dkk1. (B) Sclerostin competition with Dkk1. Percent binding in the presence of Dkk1 is shown relative to buffer control.
(§1) Binding kinetics were measured by biolayer interferometry using an Octet Red instrument (ForteBio) as previously described (11). Streptavidin (SA) biosensors were loaded with biotinylated hLRP6 in 50 mMTris, pH 8, 300 mM NaCl, 5% (v/v) glycerol, and 0.05% (w/v) Triton X-100. The loaded biosensors were washed in the same buffer before carrying out association and dissociation measurements for the indicated times. The Kd of each interaction was determined using steady state-analysis through the Octet Red software v6.3. Each reported value represents an average of three or more experiments at different concentrations, with a fitted experimental curve for which the square of the correlation coefficient (R^2) is above 0.96.
To assess whether Dkk1, Dkk2, and sclerostin might bind to the same site on LRP6 E1, Dkk2 or sclerostin binding was measured in the presence of preloaded Dkk1 (100 nM). […]

LRP6 E1 = biological target: T2, LRP6 E1 (Homo sapiens, UniProt O75581); assay: Biolayer interferometry binding to LRP6 E1
T2 construct: construct E1-amino acids A20-D325 of LPR6; made in house; host or cells: Tni insect cells (baculovirus, secreted)
T2 sequence (O75581 20-325): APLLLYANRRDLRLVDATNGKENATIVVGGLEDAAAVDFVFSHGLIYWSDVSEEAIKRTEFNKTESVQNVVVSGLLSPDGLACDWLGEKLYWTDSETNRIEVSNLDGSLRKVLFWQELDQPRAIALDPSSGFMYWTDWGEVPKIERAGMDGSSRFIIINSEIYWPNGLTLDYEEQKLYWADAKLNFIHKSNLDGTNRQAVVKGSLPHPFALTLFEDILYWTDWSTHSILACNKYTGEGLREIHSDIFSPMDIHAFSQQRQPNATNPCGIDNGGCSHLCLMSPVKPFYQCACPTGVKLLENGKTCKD
Protocol: as §1
(§2) The interaction of the different Dkks and sclerostin with various domains of LRP6 was measured using a biolayer interferometry assay (11). Purified receptors contained individual β-propeller-EGF-like units (E1, E2, or E4), two β-propellers (E1E2 or E3E4), or four β-propellers (E1E4))—as follows:
(§3) Human LRP6: construct E1E4-amino acids A20-Q1253 of LPR6; construct E1E2-amino acids A20-E631 of LPR6; construct E3E4 amino acids E631-Q1253 of LPR6; construct E1-amino acids A20-D325 of LPR6; construct E2-amino acids […]-E631 of LPR6; construct E4-T933-Q1253. The individual LRP6 β-propeller E3 could not be expressed.

LRP6 E2 = biological target: T3, LRP6 E2 (Homo sapiens, UniProt O75581); assay: Biolayer interferometry binding to LRP6 E2
T3 construct: construct E2-amino acids D235-E631 of LPR6; made in house; host or cells: Tni insect cells (baculovirus, secreted)
T3 sequence (O75581 325-631 limits assumed): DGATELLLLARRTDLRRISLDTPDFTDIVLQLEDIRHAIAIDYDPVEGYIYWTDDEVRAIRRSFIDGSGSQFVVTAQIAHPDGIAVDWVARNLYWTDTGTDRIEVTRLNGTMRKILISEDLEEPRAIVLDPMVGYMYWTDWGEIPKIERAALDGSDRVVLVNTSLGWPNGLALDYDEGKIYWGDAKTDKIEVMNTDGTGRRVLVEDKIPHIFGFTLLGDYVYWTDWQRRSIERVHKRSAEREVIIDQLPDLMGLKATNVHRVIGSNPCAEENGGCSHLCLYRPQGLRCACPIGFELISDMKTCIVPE
Protocol: as §1, §2, §3

LRP6 E1E2 = biological target: T4, LRP6 E1E2 (Homo sapiens, UniProt O75581); assay: Biolayer interferometry binding to LRP6 E1E2; details: steady state, read-out: affinity for LRP6 E1E2
T4 construct: construct E1E2-amino acids A20-E631 of LPR6; made in house; host or cells: Tni insect cells (baculovirus, secreted)
T4 sequence (O75581 20-631): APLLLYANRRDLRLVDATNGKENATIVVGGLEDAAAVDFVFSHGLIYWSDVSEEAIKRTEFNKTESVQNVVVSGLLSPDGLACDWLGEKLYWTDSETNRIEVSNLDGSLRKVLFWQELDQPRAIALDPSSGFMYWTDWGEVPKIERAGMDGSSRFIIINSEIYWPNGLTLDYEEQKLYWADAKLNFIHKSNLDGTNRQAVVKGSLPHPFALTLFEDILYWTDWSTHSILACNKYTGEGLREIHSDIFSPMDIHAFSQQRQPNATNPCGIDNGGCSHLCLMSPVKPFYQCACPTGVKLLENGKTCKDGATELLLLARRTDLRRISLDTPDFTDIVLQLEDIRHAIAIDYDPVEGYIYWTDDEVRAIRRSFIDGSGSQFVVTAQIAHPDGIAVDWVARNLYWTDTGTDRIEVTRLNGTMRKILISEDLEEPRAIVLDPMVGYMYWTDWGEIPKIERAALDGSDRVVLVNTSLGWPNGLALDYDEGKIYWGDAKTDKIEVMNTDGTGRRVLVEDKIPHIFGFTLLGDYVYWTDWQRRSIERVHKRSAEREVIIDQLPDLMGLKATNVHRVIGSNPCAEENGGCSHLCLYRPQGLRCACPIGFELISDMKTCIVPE
Protocol: as §1, §2, §3

LRP6 E4 = biological target: T5, LRP6 E4 (Homo sapiens, UniProt O75581); assay: Biolayer interferometry binding to LRP6 E4
T5 construct: construct E4-T933-Q1253; made in house; host or cells: Tni insect cells (baculovirus, secreted)
T5 sequence (O75581 933-1253): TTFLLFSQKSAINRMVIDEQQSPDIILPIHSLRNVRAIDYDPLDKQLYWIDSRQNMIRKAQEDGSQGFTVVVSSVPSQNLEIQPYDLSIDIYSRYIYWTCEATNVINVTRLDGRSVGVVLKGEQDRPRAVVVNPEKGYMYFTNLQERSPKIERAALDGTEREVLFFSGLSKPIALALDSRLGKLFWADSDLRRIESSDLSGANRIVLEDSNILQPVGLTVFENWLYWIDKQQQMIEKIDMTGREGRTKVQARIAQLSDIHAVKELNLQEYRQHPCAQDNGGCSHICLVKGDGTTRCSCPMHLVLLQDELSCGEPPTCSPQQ
Protocol: as §1, §2, §3

LRP6 E3E4 = biological target: T6, LRP6 E3E4 (Homo sapiens, UniProt O75581); assay: Biolayer interferometry binding to LRP6 E3E4; details: steady state, read-out: affinity for LRP6 E3E4
T6 construct: construct E3E4 amino acids E631-Q1253 of LPR6; made in house; host or cells: Tni insect cells (baculovirus, secreted)
T6 sequence (O75581 631-1253): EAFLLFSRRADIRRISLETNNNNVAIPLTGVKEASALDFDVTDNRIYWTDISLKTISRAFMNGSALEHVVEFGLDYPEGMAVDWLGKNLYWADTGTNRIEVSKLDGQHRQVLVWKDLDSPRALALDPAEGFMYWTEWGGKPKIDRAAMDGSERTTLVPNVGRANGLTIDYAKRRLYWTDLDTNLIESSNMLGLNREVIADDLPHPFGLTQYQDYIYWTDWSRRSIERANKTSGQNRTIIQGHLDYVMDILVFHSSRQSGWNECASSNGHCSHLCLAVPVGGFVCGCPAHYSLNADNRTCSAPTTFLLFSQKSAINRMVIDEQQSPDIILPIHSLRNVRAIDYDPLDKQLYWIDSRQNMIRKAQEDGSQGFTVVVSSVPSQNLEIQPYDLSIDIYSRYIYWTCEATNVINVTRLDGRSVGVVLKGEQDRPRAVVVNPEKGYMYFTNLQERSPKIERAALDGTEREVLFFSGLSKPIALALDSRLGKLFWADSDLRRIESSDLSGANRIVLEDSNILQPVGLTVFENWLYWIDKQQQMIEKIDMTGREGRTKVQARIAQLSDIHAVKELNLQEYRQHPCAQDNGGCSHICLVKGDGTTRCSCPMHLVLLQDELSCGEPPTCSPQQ
Protocol: as §1, §2, §3

[2] = biological target: T7, human LRP6 construct E1 (amino acids A20-D325) (human, UniProt O75581 20-325); assay: legend of FIG. 22
T7 construct: range 20-325; In the Fab crystal E1 arose from E1E2 degraded beyond Arg 335; residues Ala20 to Lys324 were traced; also called LRP6 E1; E1 domain
T7 sequence (looked up): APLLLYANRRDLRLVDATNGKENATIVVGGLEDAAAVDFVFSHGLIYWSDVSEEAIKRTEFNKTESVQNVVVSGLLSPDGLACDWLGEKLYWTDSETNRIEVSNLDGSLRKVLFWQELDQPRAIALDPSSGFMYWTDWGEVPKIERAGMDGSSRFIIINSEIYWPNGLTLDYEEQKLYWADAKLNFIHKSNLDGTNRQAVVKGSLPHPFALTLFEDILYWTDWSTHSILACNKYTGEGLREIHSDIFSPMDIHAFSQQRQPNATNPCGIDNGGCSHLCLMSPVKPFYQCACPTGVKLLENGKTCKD
Protocol: as §1, with “(R²)” for “(R^2)”

IC50 [1]: 4000 nM
Molecule: Ac-NSNAIKN-NH2 (also called Dkk1 peptide) [Dkk1 7-mer peptide Ac-NSNAIKN-am]

binding to LRP6 in the presence of preloaded Dkk1 (LRP6): inhibited only slightly
binding to LRP6 E1 (in words) (LRP6 E1): bind with high affinity
binding to LRP6 E2 (in words) (LRP6 E2): Partial binding
Kd (LRP6 E1E2): 53 nM
binding to LRP6 E4 (in words) (LRP6 E4): undetectable
Kd (LRP6 E3E4): 38 nM
B1: Dkk2: Dickkopf 2, carrier-free protein from R&D Systems (protein, UniProt Q9UBU2 34-259, looked up)
Dickkopf-related protein 2: KLNSIKSSLGGETPGQAANRSAGMYQGLAFGGSKKGKNLGQAYPCSSDKECEVGRYCHSPHQGSSACMVCRRKKKRCHRDGMCCPSTRCNNGICIPVTESILTPHIPALDGTRHRDRNHGHYSNHDLGWQNLGRPHTKMSHIKGHEGDPCLRSSDCIEGFCCARHFWTKICKPVLHQGEVCTKQRKKGSHGLEIFQRCDCAKGLSCKVWKDATYSSKARLHVCQKI

binding result [2]: binds
Molecule: Ac-CNSIKFCG-NH2 (disulfide 1-7 (inferred), also called Peptide B) [Ac-CNSIKFCG-am (disulfide)]
